Experimental data reported in the DeepSol protein solubility set.

Experiment: soluble on expression in E. coli; label from the status in PepcDB or PDB records

Sequence | soluble on expression in E. coli
MRHNIFYNRREFQMIDNFMQVLKLIKEKRTNNVVKKSDWDKGDLYKTLVHDKLPKQLKVHIKEDKYSVVGKVATGNYSKVPWISIYDENITKETKDGYYLVYLFHPEGEGIYLSLNQGWSKISDMFPRDKNAAKQRALTLSSELNKYITSNEFNTGRFYYAENKDSSYDLKNDYPSGYSHGSIRFKYYDLNEGFTEEDMLEDLKKFLELFNELASKVTKTSYDSLVNSIDEIQEDSEIEEIRTAQKDKTLKEVEAPKGIIPKYKKGVSKTTKNDSEIEKSNKENKLTGKVGEKLALNYFNELIDNKIDEDKKEQFRNILNDNPGSQHGHGYDLVAFDPTNTDKAVEKFIEIKTSTSSSIEEPFFMSLNEMFAMKEYKQKYLILRIFNVSGKEPQFYFIDPYANYSEFKDVDDLIDKVFNVEAIQYKVFGEKLEHHHHHH | not soluble
MRHPDFPVPPRIDAFASWEASLRLAFARRGGRTVLASCRHRGPLRVQKALYPEGEGVCHVVLLHPPAGIAGGDVLDIGIELGAEAHAVLTTPGATKWYKSPGRTAMQQVAIRLDAGARLDWLPQENIVFNQARPVIDLTLDLAPGAAAIGWDITMLGRHAAGESWQEGRIAMHTRLRCEGQPLWIESTAFDAQSPVLGATTGMAGFHVVGTLWAVGAGATEALAETLAEQLPYRDDLRAGVTCLTQDAPGRPSVLLLRVLARRPEDARALLSQTWLALREPIHGVAGRPLRLWATLEHHHHHH | not soluble
MRIALLVKQARLQQGVRQIDLAERLGITLRTFRRIEAGSADGVSLRDFMLVVWGLGVSERLFQGLRDDESFSVEQLEAADRKRVRLPRNRPEDF | not soluble
MRIFVYGSLRQKQGNSHWMTNAQLLGDYRIDNYQLYSLGHYPGAVPGNGAVYGEVYRIDNATLAELDALRTRGGEYARQLIQTPYGSAWMYVYQRPVDGLTLIESGDWLDRNQP | not soluble
MRILPQIMAAIVLASPALSQCGGGFSSFVDGLKAEAVSMGHDAALVDRFFQGAAQDAKVLKADRAQGVFQKPFVEFSRRLISQNRLDTGKAMGRKYDAVFDRIEAEYGVSRGVLLAFWAFETDFGGFQGDFNTRNALITLAHDCRRPELFRPQIFAAIELYSHGDFDPARTTGAWAGEIGMVQMLPRDILENGVDGDGDGHVTLKTSAPDALMSGARMLSHLGWRAGEPWLQEVTLPAQMDWSLSGPGKPRSAGEWQAMGVRPRAGDLADLPASLILPQGHKGPAFLAYPNFDVYFEWNQSFVYVLTAAYFGTRLEGGQVYDAGNPAPGLDGAGMKALQQKLQARGHDVGKIDGILGAGTRAAVQAEQARLGLPADAWPTAELLNRL | not soluble
MRIPRDTGAAEPGQYRTARTPYAREPMRCLSPAHPCKRVVTMVASQLMKTQIALNWIGALIHMSPSNILTLLPSLSLAKRVSARISKTINATPVLRERVASPRSRDARNTMDTKEFEGGALFATTAGSAANLAELSARFVYGDEVDRWDVDVDDEGDPIELAETRGSTFGRNAKFYFSSSPTIKGASRIDDLFSTSDQRYYYVPCPSCGHMQTLEWERLLYSPDFSTVHYQCAGPDCDVLIEEFHKGDMLARGEWRSHADGDGETVGFHLNALYAPLGWQSWSSLAKQYEKAKKAQDRGDLEPMQVFYNTRLAKVWDSAQEQTKAAVLQARALLEDYVLGTMPTGVLSLVSAVDVQANRLEMMVVGCGEGMERWIVDFQVIMGDPADDRTWLALDEKLKERYRHPCGVSLAILATAVDSGGHHTHEVYQFCRVRRWRNVFAIKGASKPGKPVIAQRPSLVDVTWKGQTERNGAELWMVGTDTAKDWIYNRYHLESGPGALHFPKDLPDDFFAQCVAERKVTRYVKGFKRIEWVKGKAERNEALDLLVYSLAMAHYLGLHRYGEHDW | not soluble
MRISNGSGGDNVFTSGRFRRRGAATPLISLDFIVENGQGEILLGQRLNRPAQGYWFVPGGRVCKDETLEAAFARLTQAELGVRLPLAAGTFYGVWQHFYDDNFSGEDFSTHYIVLGFRLRVAESDLRLPDAQHGSYRWLTPEQLLASDNVHENSRAYFSPDAPAVGL | not soluble
MRITFIGGGNMAGAIIGGLARQGGHRIHVVEHQQDKLDQLAAGFGCSGSQALPERFAADEVVVLAVKPQQLRELCLALAPVLNGALVVSIAAGIRLDALARWLGSRRIVRVMPNTPAMVGKGVSGLYADAAVSAADRDAAETVMRAAGLTVWLADEAGIDDITCVSGSGPAYVFYFIESMIEAAAKAGFGEDKARELVLATFDGAVELARQSPLPVAELRRNVMSKGGTTERAIARFEAEGVKAAIVAGAMDCRDRSIEMGRELSQELEHHHHHH | soluble
